“Also recorded” adds a separate entry of the source.
Legend:
[1] = biological target: CCR5 positive lipoparticles (Homo sapiens, UniProt P51681); assay: Biacore SPR binding to CCR5 positive lipoparticles (off-target control)
[2] = Binding to null lipoparticles (off-target control)
Protocol: (FIGS. 2A-2C, 5A-5C, 11A-11D, 17A-17B) Kinetic binding analysis of selected i-bodies with immobilized CXCR4 lipoparticles were performed at 25° C. using Biacore T200 instrument (GE Healthcare, Uppsala, Sweden). Streptavidin immobilization was performed in 1×HBS-P+ running buffer (10 mM HEPES, 150 mM NaCl, 0.05% [v/v] Tween-20). Amine coupling kit (GE Healthcare) and the instructions therein were utilized for the attachment of Streptavidin (Sigma; diluted to 100 μg/mL in 10 mM sodium acetate buffer pH 4.5) in all four channels on the sensor chip surface simultaneously, resulting in >6,000 RU of Streptavidin being coupled (1 RU=1 pg protein/mm^2). All binding experiments involving lipoparticles were performed with 1×HBS/BSA (10 mM HEPES, 150 mM NaCl, 1 mg/mL BSA) as instrument running buffer. Biotinylated CXCR4 lipoparticles (Integral Molecular, Cat #LEV-101B; 3.6 U/mL as described in WO 2005/042695) were typically diluted 1 in 20 in the running buffer and immobilized onto a Streptavidin containing channel by injecting at […] for 1,800 sec resulting in captured response levels of greater than 2,500 RU. […] In order to determine binding kinetics, serial dilutions (three-fold) of i-bodies diluted in 1×HBS/BSA were injected over immobilized lipoparticles with the association and dissociation phases monitored for 60 sec and 600 sec, respectively. […]

CXCR4 = CXCR4 (Homo sapiens, UniProt P61073); assay: β-arrestin BRET assay, antagonist mode with 100 nM SDF-1; assay type: cell-based; design: expressed in transfected cells; host or cells: HEK293FT
Sequence of CXCR4 (P61073 whole entry): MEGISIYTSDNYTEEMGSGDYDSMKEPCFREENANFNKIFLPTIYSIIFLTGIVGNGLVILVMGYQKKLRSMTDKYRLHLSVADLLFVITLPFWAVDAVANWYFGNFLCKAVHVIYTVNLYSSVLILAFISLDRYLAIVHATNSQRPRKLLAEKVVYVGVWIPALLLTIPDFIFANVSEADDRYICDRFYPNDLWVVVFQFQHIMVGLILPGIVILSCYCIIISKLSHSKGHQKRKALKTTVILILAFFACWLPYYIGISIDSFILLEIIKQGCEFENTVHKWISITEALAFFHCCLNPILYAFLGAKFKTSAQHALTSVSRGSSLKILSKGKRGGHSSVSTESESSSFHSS
From the text: (FIGS. 3A-3F and 14) BRET was used in this study to assess the real-time kinetic profiles resulting from any consequent increase in proximity, building upon the previously validated monitoring of GPCR/β-arrestin interactions utilizing BRET. BRET occurs between a complementary Renilla luciferase (Rluc) variant as donor and green fluorescent protein variant as acceptor. Upon Rluc-catalyzed oxidation of the coelenterazine substrate (such as coelenterazine h for first generation BRET (BRET) or EnduRen for extended BRET (eBRET), energy is transferred to the acceptor if within 10 nm, resulting in acceptor light emission peaking at a characteristic wavelength. BRET (3-arrestin assays were carried out as described previously (See, H. B., Seeber, R. M., Kocan, M., Eidne, K. A. and Pfleger, K. D. (2011) ‘Application of G protein-coupled receptor-heteromer identification technology to monitor beta-arrestin recruitment to G protein-coupled receptor heteromers’, Assay Drug Dev Technol, 9(1), 21-30, 10.1089/adt.2010.0336). CXCR4/Rluc8 cDNA constructs were generated from plasmids containing the respective receptor cDNA tagged with Rluc kindly provided by Aron Chakera (Oxford University, United Kingdom). The β-arrestin 2/Venus cDNA construct was prepared previously from pCS2-Venus kindly provided by Atsushi Miyawaki (RIKEN Brain Science Institute, Wako-city, Japan). BRET technology in cells transiently expressing CXCR4/Rluc8 and β-arrestin2/Venus in the presence of 100 nM SDF-1 agonist was evaluated in the presence of the CXCR4 agonist SDF-1/CXCL12 and the i-bodies. HEK293FT cells were maintained at 37° C., 5% CO2 in Complete Media (Dulbecco's modified Eagle's medium containing 0.3 mg/mL glutamine, 100 IU/mL penicillin, and […] streptomycin; Gibco) supplemented with 10% fetal calf serum (FCS) and […] Geneticin (Gibco). Transfections were carried out 24 h after seeding using Genejuice (Novagen) according to manufacturer's instructions. Cells were harvested with 0.05% Trypsin-EDTA (Gibco). HEK293FT cells were transfected using FuGene6 (Promega). 5 μM coelenterazine h (Promega) in HBSS was used as the luciferase substrate solution. Cells were harvested 24 h post-transfection in HEPES-buffered phenol red-free Complete Medium containing 5% FCS and added to a poly-L-lysine-coated white 96-well plate (Nunc). Dose-response curves were generated using BRET, with medium in the plate being replaced with PBS containing […] coelenterazine h (Molecular Probes) and assays carried out immediately. For these assays, 48 h post-transfection, the plate was incubated at […], 5% CO2 for 2 h with […] EnduRen (Promega) to ensure substrate equilibrium was reached. All BRET measurements were taken at 37° C. using the VICTOR Light plate reader with Wallac 1420 software (PerkinElmer). Filtered light emissions were sequentially measured at 400-475 and 520-540 nm. The BRET signal was calculated by subtracting the ratio of 520-540 nm emission over 400-475 nm emission for a vehicle-treated cell sample from the same ratio for a second aliquot of the same cells treated with agonist (in this instance in the presence of SDF-1 or CXCL12) and i-body (ADCX-99, ADCX-272, ACDX-6, ACDX-306, ADCX-668) at various concentrations. Data are mean±S.E.M. of four independent experiments carried out in duplicate.
Binding of the i-bodies to CXCR4 were examined in a β-Arrestin BRET assay as described in See, Heng B et al (2011) Assay and Drug Development Technologies 9(1):21-30. The i-bodes were examined at ten concentrations with and without 100 nM SDF-1 with the addition of ‘vehicle’ and ‘SDF-1+vehicle’ controls in order to characterise if the i-bodies are agonist or antagonists of CXCR4 activity.

CCR4 = biological target: T1, CCR4 (Homo sapiens, UniProt P51679); assay: PathHunter (DiscoverX) β-arrestin assay, CCR4; assay type: cell-based
T1 sequence (P51679 1-360): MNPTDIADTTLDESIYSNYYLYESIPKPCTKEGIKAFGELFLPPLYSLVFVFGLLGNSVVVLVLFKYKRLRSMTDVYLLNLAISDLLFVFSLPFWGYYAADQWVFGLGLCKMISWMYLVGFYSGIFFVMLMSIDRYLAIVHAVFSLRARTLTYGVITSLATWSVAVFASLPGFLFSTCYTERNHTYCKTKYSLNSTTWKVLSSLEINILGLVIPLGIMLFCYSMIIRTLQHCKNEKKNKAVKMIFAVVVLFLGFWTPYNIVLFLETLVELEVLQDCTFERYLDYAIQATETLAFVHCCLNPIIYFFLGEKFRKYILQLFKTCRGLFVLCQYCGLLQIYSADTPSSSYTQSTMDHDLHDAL
Protocol: (FIG. 9) The PathHunter® β-Arrestin assay (DiscoveRx) was performed according to the manufacturer's protocol. Cells were seeded into white walled, 384-well tissue culture-treated microplates (Corning) and normalized at 5,000 cells (or 10,000 cells for CXCR4) in a total volume of […]. Cell growth was at 37° C. (5% CO2, 95% relative humidity). […] Agonists were then added at the EC80 concentration and incubation was continued at 37° C. for 90 min (or 180 min for CCR1). Assay signal was generated through a single addition of 15 μL (50% v/v) of PathHunter Detection reagent cocktail, followed by 1 h incubation at room temperature. Microplates were read following signal generation with a PerkinElmer Envision instrument for chemiluminescent signal detection of relative light units (RLU).

Sequence of CCR5 positive lipoparticles (P51681 whole entry): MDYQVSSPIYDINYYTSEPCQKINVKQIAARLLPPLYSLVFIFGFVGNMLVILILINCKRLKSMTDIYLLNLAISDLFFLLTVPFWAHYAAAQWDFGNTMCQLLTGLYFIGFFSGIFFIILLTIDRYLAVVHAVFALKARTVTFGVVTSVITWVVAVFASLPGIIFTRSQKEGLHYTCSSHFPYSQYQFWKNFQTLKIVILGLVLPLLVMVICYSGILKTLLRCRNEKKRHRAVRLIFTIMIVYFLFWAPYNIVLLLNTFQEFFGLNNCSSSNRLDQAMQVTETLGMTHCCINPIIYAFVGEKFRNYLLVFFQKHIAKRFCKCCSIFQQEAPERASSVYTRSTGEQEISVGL

B1: ADCX-99: CXCR4 binding i-body, SEQ ID NO: 11, parent of affinity matured binders (protein)
chain: LQVDIVPSQGEISVGESKFFLCQVAGSGSDIRISWFSPNGEKLTPNQQRISVVWNDDSSSTLTIYNANIDDAGIYKCVVYRTGGYRHRALVLGEATVNVKIFQ
modifications: ADCX-99 protein sequence
binding to CCR5 positive lipoparticles [1]: did not bind; also recorded: very little binding
binding to null lipoparticles [2]: did not bind; also recorded: very little binding
IC50 (nM) in β-Arrestin BRET assay (Antagonist mode in the presence of 100 nM SDF-1) (CXCR4): very weak effect; also recorded: No activity
β-arrestin activity (CXCR4; various concentrations): some degree of inhibition
CCR4 activity (CCR4): 34%
